According to US20250092135A1 (NANJING LEADS BIOLABS, published 2025):
Residue numbers refer to the chain shown, from its start. Values belong to the binder of their own block, whether it stands above or below them.

What was measured:
[1] = target: T1, cynomolgus monkey GPRC5D protein (cynomolgus monkey, UniProt Q9NZD1 1-343 (human entry)); experiment: flow cytometry, HEK293T-CynoGPRC5D cells (sheet: 293T-cynoGPRC5D), PE anti-human IgG Fc secondary, MFI
T1 construct: also called CynoGPRC5D; on HEK293T-CynoGPRC5D cells
T1 chain: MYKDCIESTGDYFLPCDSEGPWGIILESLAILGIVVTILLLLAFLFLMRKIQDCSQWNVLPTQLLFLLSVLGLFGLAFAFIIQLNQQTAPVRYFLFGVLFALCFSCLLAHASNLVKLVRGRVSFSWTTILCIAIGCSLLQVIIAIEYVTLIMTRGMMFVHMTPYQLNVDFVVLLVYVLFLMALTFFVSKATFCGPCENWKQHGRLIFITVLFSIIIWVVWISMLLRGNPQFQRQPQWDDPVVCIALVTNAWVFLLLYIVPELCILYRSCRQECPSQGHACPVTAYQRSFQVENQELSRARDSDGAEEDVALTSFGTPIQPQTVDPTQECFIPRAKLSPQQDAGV
Method: (§1) Whether the anti-GPRC5D chimeric antibodies in the present invention could bind to the human GPRC5D protein or cynomolgus monkey GPRC5D protein stably expressed on the cell surface was determined by cell binding experiments.
(§2) The HEK293T-HuGPRC5D cell line and HEK293T-CynoGPRC5D shown in Table 2 were subjected to enzymatic digestion to obtain single cell suspensions of the two types of cells. The single cell suspensions were centrifuged at room temperature at 400×g, and then the media were discarded. The resulting cell pellets were washed once with PBS and then resuspended in the serially diluted anti-GPRC5D chimeric antibodies shown in Table 5 and the control antibody GC5B596 (at an initial concentration of 133.3 nM, 4-fold gradient dilution, 8 concentrations in total), and the cells were incubated at 4° C. for 30 min. The cells were washed once with PBS, and then fluorescent secondary antibody R-PE-conjugated AffiniPure Goat Anti-Human IgG, Fcγ Fragment Specific (Jackson ImmunoResearch, Cat #109-116-098) diluted in a 1:200 ratio was added. The cells were incubated in the dark at 4° C. for 30 min. The cells were washed twice with PBS and then resuspended, and finally, two-channel fluorescence signals were detected using a BD Accuri C5 (BD Bioscience) flow cytometer.

[2] = target: T2, human GPRC5D protein (human, UniProt Q9NZD1 1-345); experiment: flow cytometry, HEK293T-HuGPRC5D cells (sheet: 293T-huGPRC5D), PE anti-human IgG Fc secondary, MFI
T2 construct: NCI-H929 cells express it endogenously in the functional assays; also called HuGPRC5D; huGPRC5D
Method: as §1, §2

[3] = target: T2, human GPRC5D protein; experiment: as above; remark: listed apart in the source
Method: Whether the anti-GPRC5D humanized antibodies in the present invention could bind to the human GPRC5D protein stably expressed on the cell surface was determined by cell binding experiments. The HEK293T-HuGPRC5D cell line shown in Table 2 was subjected to enzymatic digestion to obtain a single cell suspension of the HEK293T-huGPRC5D cells. The single cell suspension was centrifuged at room temperature at 400×g, and then the medium was discarded. The cell pellet was washed once with PBS and then resuspended in the serially diluted anti-GPRC5D humanized antibodies and the murine chimeric antibody 29H12C9 (at an initial concentration of 166.67 nM, 4-fold gradient dilution, 8 concentration points in total), and the cells were incubated at 4° C. for 30 min. The cells were washed once with PBS, and then fluorescent secondary antibody R-PE-conjugated AffiniPure Goat Anti-Human IgG, Fcγ Fragment Specific (Jackson ImmunoResearch, Cat #109-116-098) diluted in a 1:200 ratio was added. The cells were incubated in the dark at 4° C. for 30 min. The cells were washed twice with PBS and then resuspended, and finally, two-channel fluorescence signals were detected using a Beckman Cytoflex flow cytometer.

[4] = target: T2, human GPRC5D protein; experiment: flow cytometry, HEK293T cells stably expressing human GPRC5D (sheet: 293T-huGPRC5D), PE anti-human IgG Fc secondary, MFI
Method: (2) Whether the anti-CD3/anti-GPRC5D bispecific antibodies in the present invention could bind to HEK293T cells stably expressing the human GPRC5D protein was determined by cell binding experiments. […] The plate was centrifuged at room temperature at 400×g, and then the supernatant was discarded. The cells were washed twice with PBS and centrifuged. The supernatant was discarded. The cell pellet was resuspended in fluorescent secondary antibody R-PE-conjugated AffiniPure Goat Anti-Human IgG, Fcγ Fragment Specific (Jackson ImmunoResearch, Cat #109-116-098) diluted in a 1:200 ratio. The cells were incubated in the dark at 4° C. for 30 min. The cells were washed twice with PBS, and 100 μL of PBS was added to each well to resuspend the cells. Fluorescence signals were detected using a Beckman Cytoflex flow cytometer.

T2 sequence (Q9NZD1 whole entry): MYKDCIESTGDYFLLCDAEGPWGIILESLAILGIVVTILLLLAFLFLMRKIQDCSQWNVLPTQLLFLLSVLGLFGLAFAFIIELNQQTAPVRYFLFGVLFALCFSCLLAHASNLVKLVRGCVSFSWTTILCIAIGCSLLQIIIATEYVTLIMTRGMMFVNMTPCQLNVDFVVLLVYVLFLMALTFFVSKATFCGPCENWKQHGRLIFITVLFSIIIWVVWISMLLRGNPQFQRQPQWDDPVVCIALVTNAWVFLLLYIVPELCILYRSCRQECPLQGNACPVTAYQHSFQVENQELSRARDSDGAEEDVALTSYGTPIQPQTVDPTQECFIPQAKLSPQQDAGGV

EC50 (read off the curve) [1]: ~3 nM | EC50 (read off the curve) [2]: ~3 nM
B1: chimeric antibody 29H12C9 (antibody, human IgG1, kappa, V domains shown)
VH: QVQLQQPGAELVKPGASVKLSCKASGYTFTTHYMYWVKQRPGQGLEWIGGINPSNGATNFNEKFKTKATLTVDKSSSTAYMQLSSLTSEDSAVYYCTRVGGLSYTMDYWGQGTSVTVSS
VL: DIVMSQSPSSLAVSVGEKVSMSCKSSQSLLYSSNQKNYLAWYQQKPGQSPKLLIYWASTRESGVPDRFTGSGYGTDFTLTISSMKAEDLAVYYCQQYYSYPRTFGGGTKLDIKR
notes: also called murine chimeric antibody 29H12C9; murine control antibody (29H12C9)

binding result [3]: binds
B2: humanized anti-GPRC5D antibody 29H2 (antibody, human IgG1, kappa, V domains shown)
VH: QVQLVQSGAEVKKPGASVKVSCKASGYTFTTHYMYWVRQAPGQGLEWMGGINPSNGATNFNEKFKTRVTLTVDKSTSTAYMELSSLRSEDTAVYYCTRVGGLSYTMDYWGQGTLVTVSS
VL: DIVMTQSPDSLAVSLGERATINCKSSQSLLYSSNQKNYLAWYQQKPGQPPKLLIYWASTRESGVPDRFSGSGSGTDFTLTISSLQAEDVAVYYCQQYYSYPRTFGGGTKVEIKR
notes: Human IgG1 / kappa

binding result [3]: binds
B3: humanized anti-GPRC5D antibody 29H24 (antibody, human IgG1, kappa, V domains shown)
VH: B2 VH with R38K, M48I, R67K, V68A, T76I, S85R, E89D
VL: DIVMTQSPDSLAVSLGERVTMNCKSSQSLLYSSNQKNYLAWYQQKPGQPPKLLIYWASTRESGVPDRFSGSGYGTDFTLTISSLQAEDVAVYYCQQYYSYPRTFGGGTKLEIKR
notes: Human IgG1 / kappa

binding result [3]: binds
B4: humanized anti-GPRC5D antibody 29H21 (antibody, human IgG1, kappa, V domains shown)
VH: B2 VH with M48I, T76I, S85R, E89D
VL: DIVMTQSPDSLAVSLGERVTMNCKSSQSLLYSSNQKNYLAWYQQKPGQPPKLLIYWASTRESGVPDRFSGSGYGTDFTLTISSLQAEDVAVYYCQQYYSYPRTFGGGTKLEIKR
notes: Human IgG1 / kappa

binding result [3]: binds
B5: humanized anti-GPRC5D antibody 29H6 (antibody, human IgG1, kappa, V domains shown)
VH: B2 VH with M48I, R67K, V68A
VL: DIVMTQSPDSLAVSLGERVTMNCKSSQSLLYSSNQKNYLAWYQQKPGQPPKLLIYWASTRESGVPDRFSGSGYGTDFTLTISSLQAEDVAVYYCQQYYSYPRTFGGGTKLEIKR
notes: Human IgG1 / kappa

binding result [3]: binds
B6: humanized anti-GPRC5D antibody 29H20 (antibody, human IgG1, kappa, V domains shown)
VH: B2 VH with M48I, T76I, S85R, E89D
VL: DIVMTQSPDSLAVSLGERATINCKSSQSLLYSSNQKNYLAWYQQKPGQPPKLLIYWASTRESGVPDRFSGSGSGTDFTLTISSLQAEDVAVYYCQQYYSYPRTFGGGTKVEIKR
notes: Human IgG1 / kappa

binding result [4]: binds
B7: anti-CD3/GPRC5D bispecific antibody Bi-29H6-5 (bispecific antibody, human IgG1, kappa, L234A L235A)
heavy 1: QVQLVQSGAEVKKPGASVKVSCKASGYTFTTHYMYWVRQAPGQGLEWIGGINPSSGATNFNEKFKTKATLTVDKSTSTAYMELSSLRSEDTAVYYCTRVGGLSYTMDYWGQGTLVTVSSASTKGPSVFPLAPSSKSTSGGTAALGCLVKDYFPEPVTVSWNSGALTSGVHTFPAVLQSSGLYSLSSVVTVPSSSLGTQTYICNVNHKPSNTKVDKKVEPKSCDKTHTCPPCPAPEAAGGPSVFLFPPKPKDTLMISRTPEVTCVVVAVSHEDPEVKFNWYVDGVEVHNAKTKPREEQYNSTYRVVSVLTVLHQDWLNGKEYKCKVSNKALAAPIEKTISKAKGQPREPQVCTLPPSRDELTKNQVSLSCAVKGFYPSDIAVEWESNGQPENNYKTTPPVLDSDGSFFLVSKLTVDKSRWQQGNVFSCSVMHEALHNHYTQKSLSLSPGK
heavy 2: not shown
light: not shown

EC50 (read off the curve) [1]: ~4 nM | EC50 (read off the curve) [2]: ~3 nM
B8: chimeric antibody 39A9F1 (antibody, human IgG1, kappa, V domains shown)
VH: QVQLQQPGAELVKPGSSVKLSCKASGYTFTTYWMEWVKQRPGQGLEWIGEINPNNGRSNYNEKFQTKATLTVDKSSSTAYMQFSSLTSEDSAVYYCARERAGLTYWGQGTLVIVSA
VL: DVVMTQTPLSLPVSLGDQASISCRSSQSLVHSNGNTYLHWYLQKPGQSPKLLIYKVSNRFSGVPDRFGGSGSGTDFTLKISRVEAEDLGVYFCSQSTHFPYTFGGGTKLEIKR
notes: Murine variable regions on human IgG1 and kappa constant regions

binding result [1]: binds | EC50 (read off the curve) [2]: ~3 nM
B9: chimeric antibody 4B9E9 (antibody, human IgG1, kappa, V domains shown)
VH: DVQLVESGGGLVQPRGSRKLSCAASGFTFSSFGMHWVRQAPEKGLEWVAYISSDSNTIYYADTVQGRFTISRDNPKNTLFLQMTRLRSEDTAMYYCARNPWYFDVWGAGTTVTVSS
VL: DVLMTQTPLSLPVSLGDQVSISCRSSQSIVHSNGNTYLEWFLQKPGQSPKLLIYKVSNRFSGVPDRFSGSGSGTDFTLKISRVEAEDLGIYYCFQGSHIPPTFGGGTKLEIKR
notes: as for B8
